US10119980B2, “Method for detection of basic peptide and reagent for detection of basic peptide” (SYSMEX CORPORATION, priority 2009, dated 2018)
One block for each molecule: values may come before it. Ends that are not written are not given here.

Tests used:
heat-denatured BSA = molecular target: T1, heat-denatured BSA (Bos taurus, UniProt P02769); assay: Turbidity (OD550) measurement and Hill plot analysis of peptides mixed with heat-denatured BSA reagent; type: binding, bovine; conditions: for change in OD550 with increasing peptide concentration: peptide mixed with heat-denatured BSA, final 0.2 w/v %; for Hill coefficient n: Example 5, peptide 0 to 80 μM
T1 construct: purchased Sigma-Aldrich
T1 sequence (P02769 25-607): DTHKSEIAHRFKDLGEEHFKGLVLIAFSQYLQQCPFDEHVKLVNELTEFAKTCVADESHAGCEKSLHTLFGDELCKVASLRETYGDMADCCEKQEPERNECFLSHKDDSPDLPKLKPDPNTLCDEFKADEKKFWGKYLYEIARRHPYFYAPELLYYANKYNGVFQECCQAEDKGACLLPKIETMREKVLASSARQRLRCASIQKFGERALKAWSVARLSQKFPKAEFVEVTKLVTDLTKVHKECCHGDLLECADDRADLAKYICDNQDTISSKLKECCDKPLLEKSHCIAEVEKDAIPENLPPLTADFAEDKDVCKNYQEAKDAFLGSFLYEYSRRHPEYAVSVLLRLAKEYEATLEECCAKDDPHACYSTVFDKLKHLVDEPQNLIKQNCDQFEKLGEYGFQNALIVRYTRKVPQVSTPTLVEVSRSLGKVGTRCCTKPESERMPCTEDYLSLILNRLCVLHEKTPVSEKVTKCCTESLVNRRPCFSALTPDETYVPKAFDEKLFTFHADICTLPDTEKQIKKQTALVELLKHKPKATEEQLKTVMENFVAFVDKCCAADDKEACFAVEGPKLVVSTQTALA
Description: A partial dynorphin A peptide consisting of amino acids of positions 1 to 13 of dynorphin A (SEQ ID NO: 2; Peptide Institute, Inc.) was used as the basic peptide of interest. A neutral peptide, α-endorphin (SEQ ID NO: 3; Peptide Institute, Inc.) was also used as a comparative peptide of interest. These peptides were dissolved in ultrapure water to prepare samples containing respective peptides (1.0 mg/ml).
(§1) The denatured BSA solution prepared in the above (1) (50 μl) was mixed with the respective samples prepared in (2) followed by addition of ultrapure water to prepare a total volume of 250 μl of mixed solutions containing respective peptides. In the preparation, the sample was mixed so as to obtain a final concentration of the respective peptides in the mixed solutions of 0 to 150 μM.
The thus-prepared mixed solutions were measured for OD550 in the similar manner as Example 1.
A fragment of kininogen (positions 439 to 457 (SEQ ID NO: 4); synthesized at Biologica Co.) and a fragment of ITIH4 (positions 611 to 642 (SEQ ID NO: 5); synthesized at Biologica Co.) which were known as cancer metastasis markers were used as basic peptides of interest. These peptides were dissolved in ultrapure water to prepare samples containing respective peptides (1.0 mg/ml).
as §1, with “80” for “150”
The thus-prepared mixed solutions were measured for OD550 in the similar manner as Example 1. The Kd value and Hill coefficient were calculated for the respective samples.
Besides a basic peptide, to be studied for comparison, a neutral peptide Fibrinogen α (SEQ ID NO: 6; Biological Co.) and acidic peptides C3f (SEQ ID NO: 7; Biologica Co.) and Factor XIII (SEQ ID NO: 8; Biologica Co.) were prepared. These peptides were dissolved in ultrapure water to prepare samples containing respective peptides (1.0 mg/ml).
as §1, with “solutions containing the respective peptides.” for “solutions containing respective peptides.”, “was mixed with the heat-denatured BSA solution so as” for “was mixed so as”, “0 to 80 μM.” for “0 to 150 μM.”

[1] = molecular target: T2, partial ACTH peptide (positions 1 to 24 of ACTH) (Homo sapiens, UniProt P01189); assay: Turbidity (OD550) measurement and Hill plot analysis of albumin reagents mixed with partial ACTH peptide; type: binding; conditions: for change in OD550 with increasing partial ACTH peptide concentration: albumin reagent mixed with partial ACTH peptide
T2 construct: consisting of the amino acids of positions 1 to 24 of ACTH
T2 sequence (P01189 138-161): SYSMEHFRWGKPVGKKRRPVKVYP
Description: BSA (Sigma-Aldrich) was dissolved in Milli-Q® water (Millipore) to prepare a BSA solution (1.0 w/v %). The BSA solution was divided into two and one was designated as a non-denatured BSA solution and the other was autoclaved at 110° C. for 15 minutes to obtain a heat-denatured BSA solution.
A partial ACTH peptide (Peptide Institute, Inc.) consisting of the amino acids of positions 1 to 24 of ACTH was used as the basic peptide of interest. The peptide was dissolved in ultrapure water to prepare a sample containing the basic peptide of interest (1.0 mg/ml).
The heat-denatured BSA solution prepared in the above (1) (50 μl) was mixed with the sample prepared in (2) followed by addition of ultrapure water to prepare a total volume of 250 μl of a mixed solution (final concentration of heat-denatured BSA: 0.2 w/v %). In this preparation, the sample was mixed so as to obtain a final concentration of the partial ACTH peptide in the mixed solution of 0 to 150 μM. A comparative mixed solution was also prepared in the similar manner except that the non-denatured BSA solution was used instead of the heat-denatured BSA solution.
The thus-prepared mixed solutions were measured for absorbance at the wavelength of 550 nm (OD550) in a spectrophotometer UV-2500PC (Shimadzu Corporation). The obtained results were subjected to Hill plot analysis with KaleidaGraph (HULINKS, Inc.) to calculate the values of Kd and the Hill coefficient of heat-denatured BSA and non-denatured BSA.
BSA (Sigma-Aldrich) was dissolved in Milli-Q® water (Millipore) to prepare a BSA solution (1.0 w/v %). The BSA solution was divided into five aliquots among which one was designated as a non-denatured BSA solution (heat denaturation period: 0 min) and the rest of four were heated in an autoclave at 110° C. for 5, 15, 60 and 120 min, respectively, to obtain heat-denatured BSA solutions.
The Kd value and Hill coefficient of BSA at respective heat denaturation periods were calculated. […]
The Kd value and Hill coefficient were calculated for the mixed solutions. […]

[2] = Example 1, final BSA 0.2 w/v %, peptide 0 to 150 μM, OD550 Hill plot
[3] = Example 6, albumin autoclaved at 115° C. for 15 minutes, final 0.2 w/v %, peptide 0 to 80 μM

Molecule: CC[C@H](C)[C@H](NC(=O)[C@H](CCCNC(=N)N)NC(=O)[C@H](CCCNC(=N)N)NC(=O)[C@H](CC(C)C)NC(=O)[C@H](Cc1ccccc1)NC(=O)CNC(=O)CNC(=O)[C@@H](N)Cc1ccc(O)cc1)C(=O)N[C@@H](CCCNC(=N)N)C(=O)N1CCC[C@H]1C(=O)N[C@@H](CCCCN)C(=O)N[C@@H](CC(C)C)C(=O)N[C@@H](CCCCN)C(=O)O [partial dynorphin A peptide]
Kd (heat-denatured BSA): 30 µM | Hill coefficient (heat-denatured BSA; Example 4, peptide 0 to 150 μM, OD550 Hill plot): 8 | change in OD550 with increasing peptide concentration (heat-denatured BSA): increased in a concentration dependent manner

Molecule: C3f: acidic peptide C3f (SEQ ID NO: 7) (HWESASLL; listed as Homo sapiens)
change in OD550 with increasing peptide concentration (heat-denatured BSA): no change in OD550

Molecule: Factor XIII: acidic peptide Factor XIII (SEQ ID NO: 8) (AVPPNNSNAAEDDLPTVELQGVVPR; listed as Homo sapiens)
change in OD550 with increasing peptide concentration (heat-denatured BSA): no change in OD550

Molecule: Fibrinogen α: neutral peptide Fibrinogen α (SEQ ID NO: 6) (DEAGSEADHEGTHSTKRGHAKSRPV; listed as Homo sapiens)
change in OD550 with increasing peptide concentration (heat-denatured BSA): no change in OD550

Molecule: α-endorphin (YGGFMTSEKSQTPLVT; listed as Homo sapiens)
change in OD550 with increasing peptide concentration (heat-denatured BSA): no change in OD550

Now from value to molecule, other results behind:

Hill coefficient n (heat-denatured BSA; OD550 Hill plot): 9
Molecule: GESRNRNVHSGSTFFKYYLQGAKIPKPEASFS [ITIH4 (611-642)]
change in OD550 with increasing peptide concentration (heat-denatured BSA): increased in a peptide concentration dependent manner

Hill coefficient n (heat-denatured BSA; OD550 Hill plot): 8 | change in OD550 with increasing peptide concentration (heat-denatured BSA): increased
Molecule: HNLGHGHKHERDQGHGHQR [Kininogen (439-457)]

Hill coefficient n [1, 2]: 1 | Kd [1, 2]: 290 µM | change in OD550 with increasing partial ACTH peptide concentration ([1]; listed as BSA solution that was heat-denatured for 0 min): not changed | Hill coefficient n ([1]; heat denaturation period 0 min): 1 | Kd ([1]; heat denaturation period 0 min): 290 µM
Molecule: Non-denatured BSA: BSA (Sigma-Aldrich) solution 1.0 w/v %, not heated; comparative reagent [reference compound]
change in OD550 with increasing partial ACTH peptide concentration [1]: significant change in the value of OD550 was not observed

Hill coefficient n [1, 3]: 3 | Kd [1, 3]: 67 µM | Hill coefficient n ([1]; Example 6, albumin autoclaved at 115° C. for 15 minutes, final 0.2 w/v %, peptide 0 to 80 μM, listed as heat-denatured OA): 11
B1: Heat-denatured OA: ovoalbumin solution (1.0 w/v %), pH 5 to 7, autoclaved at 115° C. for 15 minutes (protein)
chain: GSIGAASMEFCFDVFKELKVHHANENIFYCPIAIMSALAMVYLGAKDSTRTQINKVVRFDKLPGFGDSIEAQCGTSVNVHSSLRDILNQITKPNDVYSFSLASRLYAEERYPILPEYLQCVKELYRGGLEPINFQTAADQARELINSWVESQTNGIIRNVLQPSSVDSQTAMVLVNAIVFKGLWEKAFKDEDTQAMPFRVTEQESKPVQMMYQIGLFRVASMASEKMKILELPFASGTMSMLVLLPDEVSGLEQLESIINFEKLTEWTSSNVMEERKIKVYLPRMKMEEKYNLTSVLMAMGITDVFSSSANLSGISSAESLKISQAVHAAHAEINEAGREVVGSAEAGVDAASVSEEFRADHPFLFCIKHIATNAVLFFGRCVSP
change in OD550 with increasing partial ACTH peptide concentration [1]: increase in a manner dependent on the concentrations of the basic peptide
